# Results from article PMC7763487 (2020).
# B1: (Flag)3-TET1 full-length Δ1+2 (Δ109–120 + Δ1132–1202) [mouse] / (HA)3-NANOG [mouse] (parent complex)
# chain 1: MSRSRPAKPSKSVKTKLQKKKDIQMKTKTSKQAVRHGASAKAVNPGKPKQLIKRRDGKKETEDKTPTPAPSFLTRAGAARMNRDRNQVLFQNPDSLTCNGFTMALRRTTPKPKKVPPSKKQCTHNIQDEPGVKHSENDSVPSQHATVSPGTENGEQNRCLVEGESQEITQSCPVFEERIEDTQSCISASGNLEAEISWPLEGTHCEELLSHQTSDNECTSPQECAPLPQRSTSEVTSQKNTSNQLADLSSQVESIKLSDPSPNPTGSDHNGFPDSSFRIVPELDLKTCMPLDESVYPTALIRFILAGSQPDVFDTKPQEKTLITTPEQVGSHPNQVLDATSVLGQAFSTLPLQWGFSGANLVQVEALGKGSDSPEDLGAITMLNQQETVAMDMDRNATPDLPIFLPKPPNTVATYSSPLLGPEPHSSTSCGLEVQGATPILTLDSGHTPQLPPNPESSSVPLVIAANGTRAEKQFGTSLFPAVPQGFTVAAENEVQHAPLDLTQGSQAAPSKLEGEISRVSITGSADVKATAMSMPVTQASTSSPPCNSTPPMVERRKRKACGVCEPCQQKANCGECTYCKNRKNSHQICKKRKCEVLKKKPEATSQAQVTKENKRPQREKKPKVLKTDFNNKPVNGPKSESMDCSRRGHGEEEQRLDLITHPLENVRKNAGGMTGIEVEKWAPNKKSHLAEGQVKGSCDANLTGVENPQPSEDDKQQTNPSPTFAQTIRNGMKNVHCLPTDTHLPLNKLNHEEFSKALGNNSSKLLTDPSNCKDAMSVTTSGGECDHLKGPRNTLLFQKPGLNCRSGAEPTIFNNHPNTHSAGSRPHPPEKVPNKEPKDGSPVQPSLLSLMKDRRLTLEQVVAIEALTQLSEAPSESSSPSKPEKDEEAHQKTASLLNSCKAILHSVRKDLQDPNVQGKGLHHDTVVFNGQNRTFKSPDSFATNQALIKSQGYPSSPTAEKKGAAGGRAPFDGFENSHPLPIESHNLENCSQVLSCDQNLSSHDPSCQDAPYSQIEEDVAAQLTQLASTINHINAEVRNAESTPESLVAKNTKQKHSQEKRMVHQKPPSSTQTKPSVPSAKPKKAQKKARATPHANKRKKKPPARSSQENDQKKQEQLAKEKVKVEPSDSLPTCQFKTESGGQTFAEPADNSQGQPMVSVNQEAHPLPQSPPSNQCANIMAGAAQTQFHLGAQENLVHQIPPPTLPGTSPDTLLPDPASILRKGKVLHFDGITVVTEKREAQTSSNGPLGPTTDSAQSEFKESIMDLLSKPAKNLIAGLKEQEAAPCDCDGGTQKEKGPYYTHLGAGPSVAAVRELMETRFGQKGKAIRIEKIVFTGKEGKSSQGCPVAKWVIRRSGPEEKLICLVRERVDHHCSTAVIVVLILLWEGIPRLMADRLYKELTENLRSYSGHPTDRRCTLNKKRTCTCQGIDPKTCGASFSFGCSWSMYFNGCKFGRSENPRKFRLAPNYPLHNYYKRITGMSSEGSDVKTGWIIPDRKTLISREEKQLEKNLQELATVLAPLYKQMAPVAYQNQVEYEEVAGDCRLGNEEGRPFSGVTCCMDFCAHSHKDIHNMHNGSTVVCTLIRADGRDTNCPEDEQLHVLPLYRLADTDEFGSVEGMKAKIKSGAIQVNGPTRKRRLRFTEPVPRCGKRAKMKQNHNKSGSHNTKSFSSASSTSHLVKDESTDFCPLQASSAETSTCTYSKTASGGFAETSSILHCTMPSGAHSGANAAAGECTGTVQPAEVAAHPHQSLPTADSPVHAEPLTSPSEQLTSNQSNQQLPLLSNSQKLASCQVEDERHPEADEPQHPEDDNLPQLDEFWSDSEEIYADPSFGGVAIAPIHGSVLIECARKELHATTSLRSPKRGVPFRVSLVFYQHKSLNKPNHGFDINKIKCKCKKVTKKKPADRECPDVSPEANLSHQIPSRVASTLTRDNVVTVSPYSLTHVAGPYNRWV
# chain 2: MSVGLPGPHSLPSSEEASNSGNASSMPAVFHPENYSCLQGSATEMLCTEAASPRPSSEDLPLQGSPDSSTSPKQKLSSPEADKGPEEEENKVLARKQKMRTVFSQAQLCALKDRFQKQKYLSLQQMQELSSILNLSYKQVKTWFQNQRMKCKRWQKNQWLKTSNGLIQKGSAPVEYPSIHCSYPQGYLVNASGSLSMWGSQTWTNPTWSSQTWTNPTWNNQTWTNPTWSSQAWTAQSWNGQPWNAAPLHNFGEDFLQPYVQLQQNFSASDLEVNLEATRESHAHFSTPQALELFLNYSVTPPGEI
# Variants of: B1
# Assay: co-immunoprecipitation (anti-Flag IP), quantified immunoblot; E14/T ESCs; parent: 0.29; read off a plot
row,Variant,screen value
1,"chain 1 F1440A, chain 1 F1442A, chain 1 W1446A, chain 1 Y1449A, chain 1 F1450A, chain 1 F1455A, chain 1 F1464A",~0.065
